Experimental data taken from patent US9605038B2, “Fusion peptide comprising dhFas-1 domain and MMP substrate and use thereof for preventing and treating rheumatoid arthritis” (Kyungpook National University Industry-Academic Cooperation …, priority 2010, dated 2017).

Columns and labels:
[1] = molecular target: T1, MMP-1 secreted from a human Synovial membrane cell (Homo sapiens, UniProt P03956); assay: Culture analysis of enzymatic digestion in IL-1β stimulated human FLS; assay type: cell-based; conditions: 1 uM peptide, 3 and 6 hours, IL-1β 0.1 ng/ml
T1 construct: MFK24 peptide cleaved by MMP-1 secreted from a human Synovial membrane cell; endogenous in cells; host or cells: human fibroblast-like synoviocytes (human synovial membrane cell line) stimulated with 0.1 ng/ml IL-1β
T1 sequence (P03956 100-469): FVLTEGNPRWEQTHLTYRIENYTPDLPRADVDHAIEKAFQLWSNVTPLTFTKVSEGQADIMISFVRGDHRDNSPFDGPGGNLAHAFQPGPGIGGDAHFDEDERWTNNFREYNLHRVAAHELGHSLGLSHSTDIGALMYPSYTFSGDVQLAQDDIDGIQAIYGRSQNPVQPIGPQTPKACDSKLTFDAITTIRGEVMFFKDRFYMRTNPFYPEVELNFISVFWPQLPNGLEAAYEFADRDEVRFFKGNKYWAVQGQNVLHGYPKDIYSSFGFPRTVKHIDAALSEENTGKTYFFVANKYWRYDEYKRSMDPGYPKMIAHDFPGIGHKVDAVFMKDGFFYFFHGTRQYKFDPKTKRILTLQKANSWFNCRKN
Description: In order to determine if MFK24 is well adhered to cells and in actuality cleaved by MMP-1, human FLS (fibroblast-like synovicyte) was treated with IL-1β so as to amplify the expression of MMP-1. Then, MFK24 was added in a culture medium and cultured.
In a culture medium of DMEM+10% FBS (fetal bovine serum)+2% penicillin, streptomycin, a human Synovial membrane cell line was cultured for 2 days, added with 0.1 ng/ml IL-1β, and stimulated for 24 hours. The cell line was treated with mdhFas-1-MMPsubstrate-RGD structural peptide (1 uM), and stimulated for 3 hours and 6 hours. Then, by using an anti-βig-h3 antibody recognizing mdhfas-1, and an anti-histidine antibody recognizing C-terminal histidine-tag, the amount of peptide was determined.

[2] = system: TNF-a, RANKL, IL-1β, CCL-2, MMP-1, MMP-3, IL-6, VCAM-1; assay: Semiquantitative reverse transcription PCR of inflammatory mediators in CIA mouse foot tissue; assay type: in vivo; conditions: CIA mouse articulation tissue, FIG. 21
Description: The distribution of inflammation in the foot tissue may be somewhat differently observed according to the regions, and its quantitative research is difficult. Thus, in the hind leg of a mouse CIA model treated with MFK24, the change in inflammatory mediators according to the onset of arthritis was measured by a semiquantitative reverse transcription PCR method using a Taqman probe, as described below.
From a mouse CIA model, a foot tissue was separated, and its skin was removed. The remaining tissue was grinded by a tissue homogenizer, and an extraction reagent (Easy-spim™, Intron) was used to extract all RNAs. They were quantified, and for 7 μg of RNA, a reverse transcriptase reaction was carried out by using AMV reverse transcriptase (Roche, 0.5 ul), oligo dT (Roche, 1 ul), and 10 mM dNTP (Takara, 2 ul) RNase inhibitor (Roche, 0.1 ul). For TNF-a, RANKL, IL-1β, CCL-2, MMP-1, MMP-3, IL-6, VCAM-1 and 18S RNA of a mouse, semiquantitative PCR was performed by using primers (Bioneer, Daejeon) and a Taqman probe (Roche, Germany) in LC480 (Roche, Germany), so as to determine the number of transcripts. Quantitative analysis of the transcripts was performed through comparison with 18S RNA transcripts. The primer pairs for the semiquantitative PCR are noted in [table8].

ICAM-1 and RANKL = assay: Immunoblot of ICAM-1 and RANKL in CIA mouse model; assay type: in vivo

B1: MFK24: fusion peptide having sequential links of mdhFas-1, MMP1 substrate GPQGIAG (SEQ ID NO: 6), and QERGDSLA (SEQ ID NO: 10) (protein)
chain: QAMPPEELNKLLANAKELTNILKYHIGDEILVSGGIGALVRLKSLQGDKLEVSSKNNVVSVNKEPVAETDIMEFGPQGIAGVDGQERGDSLAGLE
modifications: MFK24
- cleavage in FLS culture (anti-histidine vs anti-βig-h3) [1]: cleaved by MMP-1 secreted from a Synovial membrane cell
- number of transcripts of inflammatory mediators compared to arthritis control group [2]: significantly reduced
- efficacy on ICAM-1 and RANKL expression at low dose (ICAM-1 and RANKL; 0.1 mg/kg): the high efficacy was maintained
- expression of ICAM-1 and RANKL in the inflammatory region (ICAM-1 and RANKL; according to doses, FIG. 22): reduced
